From publication PMC2174084

Target: rabbit skeletal muscle actin, polymerized (F-actin) (rabbit) (UniProt P68135)
Experiment: co-sedimentation

## full-length Kelch (purified, recombinant; ORF1 cDNA) (natural protein)
  stoichiometry N (Kelch per actin (molar ratio)): 0.25
